Reference: the nanobody polyreactivity screen of Harvey et al. (2022)

Experiment: yeast display, Sf9 membrane polyspecificity reagent, FACS + sequencing; frameworks hold sequencing errors
Outline: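 Galactose-induced (36–48 hours) yeast carrying a synthetic nanobody display library were exposed to 10% biotinylated, detergent-solubilized Sf9 membrane reagent at 4 °C for 1 hour. FACS followed streptavidin microbead enrichment, using low and high (top ~1%) gates for expression (anti-HA) and reagent binding (streptavidin). Colony PCR, MiSeq 2 × 250 sequencing and CDR-length filtering followed. Labels for polyreactivity reflect the gate of origin.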

| Sequence | polyreactivity (PSR sort gate) |
| --- | --- |
| QVQLVESGGGLVQAGGSLRLICAASGSTIAVYAIGWYRQAPGKERELVASISFSVVSTSYADSVKGRFTISRDNAKNTVYLQMNSLKPEDTAVYYCSTYYVRASYRYDYWGQGTQVTVSS | high polyreactivity |
| QVQLVESGGGLVQAGGSLRLSCAASGSIFFGNAMGWYRQAPGKERELVAAISTTGGSTYYADSVKGRFTISRDNAKNTVYLQMISLKPEDTAVYYCNADRATWWEQWWYDYWGQGTQVTVSS | low polyreactivity |
| QVQLVESGGGLVQAGGSLRLSCAASGSTFYYYAMGWYRQAPGKEREFVAAITFRGGSTYYADSVKGRFTISRDNAKNTVYLQMNSLKPEDTAVYYCAAKPPFRNYVRYDYWGQGTQVTVSS | high polyreactivity |
| QVQLVESWGGLVQAGGSLRLSCAASGSIFSPYAIGWYRQAPGKERELVAAISFRASTTYYADSVKGRFTITRDNAKNTVYLQMNSLKPEDTAVYYCAASPLYSWFWGLYDYWGQGTQVTVSS | low polyreactivity |
| QVQLVESGGGLVQAGGSLRLSCAASGSIFTKYAMGWYRQAPGKERELVAAINARGGSTYYADSVKGRFTISRDNAKNTVYLQMNSLKPEDTAVYYCAARYGVGRADYYWGHGTQVTVSS | high polyreactivity |
| QVQLVESGGGLVQAGGSLRLSCAASGRTIKYYAMGWYRQAPGKERQLVAVISWSGGRTYYADSVKGRFTISRDNAKNTVYLQMNSLKPEDTAVYYCNAVYPYYYLLKRYKEGYWGLGTQVTVSS | high polyreactivity |
| QVQLVESGGGLVQAGGSLRLSCAASGSIFPGYAMGWYRQAPGKERELVATITWSGGSTYYADSVKGRFTISRDKAKNTVYLQMNSLKPEDTAVYYCNADSNWYYQWNYYGLYDYWGQGTQVTVSS | low polyreactivity |
| QVQLVESGGGLVQAGGSLRLSCAASGRIFYLNAMGWYRVAPGKERELVAAITRSAASTHYADSVKGRFTISRDNAKNTVYLQMNSLKPEDTAVYYCAARFWYDYRHYDYWGQGTQVTVSS | low polyreactivity |
| QVQLVESGGGLVQVGCSLRLSCAASGFTFYNNVMGWYRQAPGKERELVAAITSTGSTSYADSVKGRFTISRDNAKNTVYLQMNSLKPEDTAVVYCARAYYYLLGGHYRHKYYWGQGTQVTVSS | high polyreactivity |
| QVQLVESGGGLVQAGGSLRLSCAASGFIFWPYVMGWYRQEPGTDRELVAAISLGDGSTYYADSVKGRFRLSRDHAKNTVYLQMNSLKPEDTAVYYCAADVTVAWYPVYPGFYYWGQGTQVTVSS | low polyreactivity |
| QVQLVDSGGGLVQAGGSLRLSCAASGFIFTQYAMGWYRQAPGQDRELVAAISRSGSSTYYADSVKGRFTISRDNAKNTVSLQMNSLKPEDTAVYYCAAKGSRGTRYWGEDYWGQGTQVTVSS | low polyreactivity |
| QVQLVESGGGLVQAGGSLRLSCAASGFIYNAMGWYRQAPGKERELVAAISYSGGSTYYADSVKGRFTISRDNAKNTVYLQMNILKPEDTAVYYCAAGYYPFNYWGQGTQVTVSS | high polyreactivity |
| QVQLVETGGGLVQAGGSLRLSCAASGSTFYAYVMGWYRQAPGKERELVAAITSAGSTYYADSVKGRFTISLDNAKNTVYLQMNSLKPEDTAVYYCAADAYTESAYYKYDYWGQGTQVTVSS | low polyreactivity |
| QVQLVESGGGLVQAGGSLRLSCAASGFTFGRYAMGWYRQAPGKERELVAAISTSGGRTYYADSVKGRFTISRDNAKNTVYLQMNSLKPEDTAVYYCAAEQRRFTGYDYWGQGTQVTVSS | high polyreactivity |
| QVQLVESGGGLVQAGGSLRLICAASGFTFLTYAMGWYRQAPGKERELVAAIDSGDSTKYADSVKGRFTISRDNAKYTVYLQMNSLKPEDTAVYYCNASRRYHVLAPYDYWGQGTQVTVSS | low polyreactivity |
| QVQLVDSGGGLVQAGGSHRLSCAASGLTYHQYAMGWYRQAPGKERELVAAITSDGASTNYADSVKGRFTISRDNAKNTVYLQMISLKPEDTAVYYGAARRRSRQYRYDYWGQGTQVTVSS | high polyreactivity |
| QVQLVESGGGLVQAGGSLRLSCAASGRIFGVYAMGWYRQAPGKERELVADISWSGSGTYADSVKGRFTISRDNAKNTVYLQMNSLKPEDTAVYYCNVDPAQIHAGYVGYDYWGQGTQVTVSS | low polyreactivity |
| QVQLVESGGGLVQAGGSLRLSCAASGSIFKYYAMGWYRQAPGKERELDAAISYSGGRTYYADSVKGRFTISRDNAKNTVYLQMNSLKPEDTAVYYCATDYYYRSAKFLGDYWGQGTQVTVSS | high polyreactivity |
| QVQLVESGGGLDQAGGSLRLSCAASGRIFTYNAMGWYRPAPGKERELVAVISRRGGSTYYADSVKGRFTISRDNAKNTVYLQMNSLKPEDTAVYYCAAGGSVFYDNRYDYWGQGTQVTVSS | low polyreactivity |
| QVQLVESGGGLVQAGGSLRLSCAASGSIFSPNDMGWYRPAHGKERELVAAITSAGSTFYADSVKGRFTISRDNAKNTVYIQMNSLKPEDTAVDYCSATYISVTDYAYFPLWYGYWGQGTQVTVSS | low polyreactivity |
| QVQLVESGGGLVQAGGSLRLSCAASGFTFWGYTMGWYRQAPGKERELVAAITSTGSTYYADSVKGRFTISRDNAKNTVYFLMNSLKPEDTAVYYCAATRGSSEYYYWGQGTQLTVSS | low polyreactivity |

| Sequence | polyreactivity (PSR sort gate) |
| --- | --- |
| QVQIVESGGGLVQAGGSLRLICAASGSTFSEYAMGWYRQAPGKERELVAAIRWSGGSTSYADSVKGRFTISRVNAKNTVYLQMNSLKPEDTAVYYCAAERFWYDGEVKLYVLSYYWGQGTQVTVSS | low polyreactivity |
| QVQLVESGGGLVQAGGSLRLSCAASGRIFFWYAMGWYRQAPGKERELVAAISKSGGSTYYADSVKGRFTISRDNAKNTVYLQMNSLKPEDTAVYYCARVSKRTWSGYYYWGQGTQVTVSS | high polyreactivity |
| QVQLVESGGGLVQAGGSLRLSCAASGSTSGIYAMGWYRQAPGKERELVAAIDTSGGSTYADSVKGRFTISRDNAKNTVYLQMNSLKPEDTAVYYCAKPFSSNSWSHGYWGQGTQVTVSS | low polyreactivity |
| QVQLVESGGGLVQAGGSLRLSCAASGSIFGYNTMGRYRQAPGKERELVAAISYRGGSTYADSVKGRFTISRDNAKNTVYLQMNSLKPEDTAVYYCAKRSIVGYRYSGYDYWGQGTQVTVSS | high polyreactivity |
| QVQLVESGGGLVQAGGSLRLSCAASGGTFRSNAMGWYRQAPGKERELVAAISKRGGSTHYADSVKGRFTISRDNSKNTVYLQMNSLKPEDTAVYYCNTYGWQEGDYWGQGTQVTVSS | high polyreactivity |
| QVQLVESGRGLVQAGGSLRLSCAASGSIFAFYAMGWYRPAAGKERELVAVITRSGGSTYYADSVKGRFTISRDNAKITVYLQMNSLKPEDTAVFYCAARTGYGYTRYEYWGQGTQVTVSS | high polyreactivity |
| QVQLVESGGGLVQAGGSLRLSCAASGRIFYINAMGWYRQAPGKERELVAAISWSGSSTYYADSVKGRFTISRDNAKNTVYLQMNSLKPEDTAVYYCAAVSYKRVDYWGQGTQVTVSS | high polyreactivity |
| QVQLVESGGGLVQAGGSLRLSCAASGFIIKYYAMGWYRQAPGKERELVAAIDGSSASTYYADSVKGRFTISRDNAKNTVYLQMNSLKPEDTPVYYCAVARLRRGGVQYGYWGQGTQVTVSS | high polyreactivity |
| QVQLVESGGGLVQAGGSLRLSCAASGSTFGWNAMGWYRQAPGKERELVAAISSSGGITYYADSVKGRFTISRDNAKNTVYLQMNSLKPEDTAVYYCAAERDDDWVNYWGQGTQVTVSS | low polyreactivity |
| QVQLVESGGGLVQAGGSLRLSCAASGRTLYFNAMGWYRQAAGKERELVASITNGGRTNYADSVKGRFTISRDNAKNTVYLQMNSLKPEDTAVYYCAKRTLCSRGVNYYWGQGTQVTVSS | high polyreactivity |
| QVQLVESGGGLVQAGGSLRLSCAASGFTFRYYAMGWYRPAPGKERELVATISRGGSTNYADSVKGRFTISRDNAKNTVYLQMNSLKPEDTAVYYCNARIYKGYNYWGQGTQVTVSS | high polyreactivity |
| QVQIVESGGGLVQAGGSLRFSCAASGRTFWLNDMGWYRHAPGKERELVARISRRGGSTYYAHSVKGRFTISRDHAKNTVYLQIISLKPEDTAVYYCAAAIVTRSYKYDYWGQGTQVTVSS | high polyreactivity |
| QVQLVESGGGLVQAGGSLRLSCAASGRTFLWYAMGWYRQAPGKERELVAAITTAGSTYYADSVKGLFTISRDNAKNTVYLLMNSLKPEDTAVYYCNRLTYAYPPPVLGVGHDSWGQGTQVTVSS | low polyreactivity |
| QVQLVESGGGLVQAGGRLRLSCAASGITFKRYAMGWYRQAPRKERELVAAISDIGGRTYYADSVKGRFSISRDNAKNTVYLQMYSLKPEDTAVYYCAADYYSPVDWYYYWGQGTQVTVSS | high polyreactivity |
| QVQLVESGGGLVQAVGSLRLSCAASGFILGGYALGWYRQAPGKERELVAAISFSTVATYYADSVKGRFTNSRDNAKNTVYLQMNSLKPEDTAVYYCAARRLGYYRKVKELDYWGQGTQVTVST | high polyreactivity |
| QVQLVESGGGLVQAGGSLRLSCAASGSTFADNAMGWYRQAPGKERELVATITDGGSTNYADSVKGRFTISRDNAKNTVYLQMNSLKPEDTAVYYCNADTHARWTGVKGTYSDYDYWGQGTQVTVSS | low polyreactivity |
| QVQLVESGGGLVQAGGSLRLSCAASGSTYYYYMGWYRQAPGKERELVASISYTGSRTYYADSVKGRFTISRDNAKNTVYLQMNSLKPEDTAVYYCAAARSRARSYYYWGQGTQVTVSS | high polyreactivity |
| QVQLQESGGGLMQAGGSQRLSCAARGSISYYSDMGWYLQAPGKEREFVAGIGYGTTTNYADSVKGRFTTSRDNAKNTVYLQMISMKPEDTAVYYCAAYQGNGYEFYYWGQGTQVTVRS | low polyreactivity |
| QVQLVESGGGLVQAGGSLRLSCAASGLTFKKYAMGWYRPAPGKERELVAAISSGSTTYYADSVKGRFTISRDNAKNTVYLQMNSLKPEDTAFYYCAARRKGTVASMGYWGQGTQVTVSS | high polyreactivity |
| QVQLVQSGGGLVQAGGSLRLSCAASGRIFNYNAMGWYRQAPGKERELVAAINRSGVSTHYADSVKGRFTISRDNAKNTVYLQMNSLKPEDTAVYYCARTVYGARSYDYWGQGTQVTVSS | low polyreactivity |
